Laboratory results as given in US20220064329A1 (Novo Nordisk, published 2022).

T1: recombinant human activated Factor VII (FVIIa) (human, UniProt P08709 61-212; P08709 213-466, ten glutamate residues of the Gla domain may be gamma-carboxylated)
T1 construct: chains tethered by a disulfide bond; also called Factor VIIa; rFVIIa
T1 sequence 1: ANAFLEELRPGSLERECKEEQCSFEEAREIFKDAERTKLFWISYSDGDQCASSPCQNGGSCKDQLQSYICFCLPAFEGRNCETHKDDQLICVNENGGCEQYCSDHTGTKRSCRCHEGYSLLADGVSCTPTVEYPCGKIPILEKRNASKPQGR
T1 sequence 2: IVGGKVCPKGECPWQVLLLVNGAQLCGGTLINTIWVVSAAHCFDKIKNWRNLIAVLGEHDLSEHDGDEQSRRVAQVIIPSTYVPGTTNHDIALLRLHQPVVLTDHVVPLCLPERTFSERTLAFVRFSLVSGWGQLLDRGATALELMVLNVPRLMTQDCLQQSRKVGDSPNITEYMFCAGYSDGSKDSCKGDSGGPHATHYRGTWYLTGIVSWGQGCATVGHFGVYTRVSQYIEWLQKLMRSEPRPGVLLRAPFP

B1: VH SEQ ID NO 618 / VL SEQ ID NO 342 (antibody, IgG4, V domains shown)
VH: QVQLQESGPGLVKPSQTLSLTCTVSGYSISSDSAWSWIRQFPGKGLEWIGYIQYSGSTNYNPSLKSRVTISRDTSKNQFSLKLSSVTAADTAVYYCARSVNYYGNSFAVGPWGQGTLVTVSS
VL: EIVLTQSPATLSLSPGERATLSCRASQGISDYLHWYQQKPGQAPRLLIKYTSQPATGIPARFSGSGSGRDFTLTISSLEPEDFAVYYCQNGHSFPLTFGAGTKLELK
notes: humanized 11F2; IgG4 S228P/kappa
B2: VH SEQ ID NO 618 / VL SEQ ID NO 358 (antibody, IgG4, V domains shown)
VH: QVQLQESGPGLVKPSQTLSLTCTVSGYSISSDSAWSWIRQFPGKGLEWIGYIQYSGSTNYNPSLKSRVTISRDTSKNQFSLKLSSVTAADTAVYYCARSVNYYGNSFAVGPWGQGTLVTVSS
VL: EIVLTQSPATLSLSPGERATLSCRASQGISDYLHWYQQKPGQAPRLLIKYTSQPATGIPARFSGSGSGTDFTLTISSLEPEDFAVYYCQNGHSFPLTFGQGTKLEIK
notes: as for B1
B3: VH SEQ ID NO 618 / VL SEQ ID NO 454 (antibody, IgG4, V domains shown)
VH: QVQLQESGPGLVKPSQTLSLTCTVSGYSISSDSAWSWIRQFPGKGLEWIGYIQYSGSTNYNPSLKSRVTISRDTSKNQFSLKLSSVTAADTAVYYCARSVNYYGNSFAVGPWGQGTLVTVSS
VL: EIVLTQSPATLSLSPGERATLSCRASQGVSDYLHWYQQKPGEAPRLLIKYASQPATGIPARFSGSGSGTDFTLTISSLEPEDFAVYYCQNGHSFPLTFGQGTKLEIK
notes: as for B1
B4: VH SEQ ID NO 618 / VL SEQ ID NO 414 (antibody, IgG4, V domains shown)
VH: QVQLQESGPGLVKPSQTLSLTCTVSGYSISSDSAWSWIRQFPGKGLEWIGYIQYSGSTNYNPSLKSRVTISRDTSKNQFSLKLSSVTAADTAVYYCARSVNYYGNSFAVGPWGQGTLVTVSS
VL: EIVLTQSPATLSLSPGERATLSCRASQGVSDYLAWYQQKPGQAPRLLIKYASQPATGIPARFSGSGSGTDFTLTISSLEPEDFAVYYCQNGHSFPLTFGQGTKLEIK
notes: as for B1
B5: VH SEQ ID NO 618 / VL SEQ ID NO 382 (antibody, IgG4, V domains shown)
VH: QVQLQESGPGLVKPSQTLSLTCTVSGYSISSDSAWSWIRQFPGKGLEWIGYIQYSGSTNYNPSLKSRVTISRDTSKNQFSLKLSSVTAADTAVYYCARSVNYYGNSFAVGPWGQGTLVTVSS
VL: EIVLTQSPATLSLSPGERATLSCRASQGLSDYLHWYQQKPGEAPRLLIKYASQPATGIPARFSGSGSGTDFTLTISSLEPEDFAVYYCQNGHSFPLTFGQGTKLEIK
notes: as for B1
B6: VH SEQ ID NO 618 / VL SEQ ID NO 470 (antibody, IgG4, V domains shown)
VH: QVQLQESGPGLVKPSQTLSLTCTVSGYSISSDSAWSWIRQFPGKGLEWIGYIQYSGSTNYNPSLKSRVTISRDTSKNQFSLKLSSVTAADTAVYYCARSVNYYGNSFAVGPWGQGTLVTVSS
VL: EIVLTQSPATLSLSPGERATLSCRASQGVSDYLHWYQQKPGQAPRLLIKYASQPATGIPARFSGSGSGTDFTLTISSLEPEDFAVYYCQNGHSFPLTFGQGTKLEIK
notes: as for B1
B7: VH SEQ ID NO 618 / VL SEQ ID NO 446 (antibody, IgG4, V domains shown)
VH: QVQLQESGPGLVKPSQTLSLTCTVSGYSISSDSAWSWIRQFPGKGLEWIGYIQYSGSTNYNPSLKSRVTISRDTSKNQFSLKLSSVTAADTAVYYCARSVNYYGNSFAVGPWGQGTLVTVSS
VL: EIVLTQSPATLSLSPGERATLSCRASQGVSDYLAWYQQKPGQAPRLLIKYTSQPATGIPARFSGSGSGTDFTLTISSLEPEDFAVYYCQNGHSFPLTFGQGTKLEIK
notes: as for B1
B8: VH SEQ ID NO 618 / VL SEQ ID NO 438 (antibody, IgG4, V domains shown)
VH: QVQLQESGPGLVKPSQTLSLTCTVSGYSISSDSAWSWIRQFPGKGLEWIGYIQYSGSTNYNPSLKSRVTISRDTSKNQFSLKLSSVTAADTAVYYCARSVNYYGNSFAVGPWGQGTLVTVSS
VL: EIVLTQSPATLSLSPGERATLSCRASQGVSDYLAWYQQKPGQAPRLLIKYASQPATGIPARFSGSGSGTDFTLTISSLEPEDVAVYYCQNGHSFPLTFGQGTKLEIK
notes: as for B1
B9: VH SEQ ID NO 618 / VL SEQ ID NO 430 (antibody, IgG4, V domains shown)
VH: QVQLQESGPGLVKPSQTLSLTCTVSGYSISSDSAWSWIRQFPGKGLEWIGYIQYSGSTNYNPSLKSRVTISRDTSKNQFSLKLSSVTAADTAVYYCARSVNYYGNSFAVGPWGQGTLVTVSS
VL: EIVLTQSPATLSLSPGERATLSCRASQGVSDYLAWYQQKPGQAPRLLIKYASQPATGIPARFSGSGSGTDFTLTISSLEPEDFGVYYCQNGHSFPLTFGQGTKLEIK
notes: as for B1
B10: VH SEQ ID NO 618 / VL SEQ ID NO 390 (antibody, IgG4, V domains shown)
VH: QVQLQESGPGLVKPSQTLSLTCTVSGYSISSDSAWSWIRQFPGKGLEWIGYIQYSGSTNYNPSLKSRVTISRDTSKNQFSLKLSSVTAADTAVYYCARSVNYYGNSFAVGPWGQGTLVTVSS
VL: EIVLTQSPATLSLSPGERATLSCRASQGVSDYLAWYQQKPGEAPRLLIKYASQPATGIPARFSGSGSGTDFTLTISSLEPEDFAVYYCQNGHSFPLTFGQGTKLEIK
notes: as for B1
B11: VH SEQ ID NO 618 / VL SEQ ID NO 406 (antibody, IgG4, V domains shown)
VH: QVQLQESGPGLVKPSQTLSLTCTVSGYSISSDSAWSWIRQFPGKGLEWIGYIQYSGSTNYNPSLKSRVTISRDTSKNQFSLKLSSVTAADTAVYYCARSVNYYGNSFAVGPWGQGTLVTVSS
VL: EIVLTQSPATLSLSPGERATLSCRASQGVSDYLAWYQQKPGQAPRLLIKYASQPATGIPARFSGSGSGTDFTLTISSLEPEDFAVYYCQNGHSFPLTFGAGTKLEIK
notes: as for B1
B12: VH SEQ ID NO 618 / VL SEQ ID NO 350 (antibody, IgG4, V domains shown)
VH: QVQLQESGPGLVKPSQTLSLTCTVSGYSISSDSAWSWIRQFPGKGLEWIGYIQYSGSTNYNPSLKSRVTISRDTSKNQFSLKLSSVTAADTAVYYCARSVNYYGNSFAVGPWGQGTLVTVSS
VL: EIVLTQSPATLSLSPGERATLSCRASQGISDYLHWYQQKPGQAPRLLIKYTSQPATGIPARFSGSGSGTDFTLTISSLEPEDFAVYYCQNGHSFPLTFGAGTKLELK
notes: as for B1
B13: VH SEQ ID NO 618 / VL SEQ ID NO 422 (antibody, IgG4, V domains shown)
VH: QVQLQESGPGLVKPSQTLSLTCTVSGYSISSDSAWSWIRQFPGKGLEWIGYIQYSGSTNYNPSLKSRVTISRDTSKNQFSLKLSSVTAADTAVYYCARSVNYYGNSFAVGPWGQGTLVTVSS
VL: EIVLTQSPATLSLSPGERATLSCRASQGVSDYLAWYQQKPGQAPRLLIKYASQPATGIPARFSGSGSGTDFTLTISSLEPEDFAVYYCQQGHSFPLTFGQGTKLEIK
notes: as for B1
B14: VH SEQ ID NO 618 / VL SEQ ID NO 462 (antibody, IgG4, V domains shown)
VH: QVQLQESGPGLVKPSQTLSLTCTVSGYSISSDSAWSWIRQFPGKGLEWIGYIQYSGSTNYNPSLKSRVTISRDTSKNQFSLKLSSVTAADTAVYYCARSVNYYGNSFAVGPWGQGTLVTVSS
VL: EIVLTQSPATLSLSPGERATLSCRASQGVSDYLHWYQQKPGQAPRLLIKYASQPATGIPARFSGSGSGTDFTLTISSLEPEDFAVYYCQNGHSFPLTFGAGTKLEIK
notes: as for B1
B15: VH SEQ ID NO 618 / VL SEQ ID NO 398 (antibody, IgG4, V domains shown)
VH: QVQLQESGPGLVKPSQTLSLTCTVSGYSISSDSAWSWIRQFPGKGLEWIGYIQYSGSTNYNPSLKSRVTISRDTSKNQFSLKLSSVTAADTAVYYCARSVNYYGNSFAVGPWGQGTLVTVSS
VL: EIVLTQSPATLSLSPGERATLSCRASQGVSDYLAWYQQKPGEAPRLLIKYTSQPATGIPARFSGSGSGTDFTLTISSLEPEDFAVYYCQNGHSFPLTFGQGTKLEIK
notes: as for B1
B16: VH SEQ ID NO 618 / VL SEQ ID NO 366 (antibody, IgG4, V domains shown)
VH: QVQLQESGPGLVKPSQTLSLTCTVSGYSISSDSAWSWIRQFPGKGLEWIGYIQYSGSTNYNPSLKSRVTISRDTSKNQFSLKLSSVTAADTAVYYCARSVNYYGNSFAVGPWGQGTLVTVSS
VL: EIVLTQSPATLSLSPGERATLSCRASQGLSDYLAWYQQKPGEAPRLLIKYASQPATGIPARFSGSGSGTDFTLTISSLEPEDFAVYYCQNGHSFPLTFGQGTKLEIK
notes: as for B1

The binders below were run against T1, recombinant human activated Factor VII … (assay: BLI (Fortebio)).
In the case of B1, the Kd is reported as 1.2 nM.
In the case of B2, the Kd is reported as 0.95 nM.
B3 gave a Kd of 1.3 nM.
In the case of B4, the Kd is reported as 24 nM.
With B5 the Kd was 1.1 nM.
In the case of B6, the Kd is reported as 1.2 nM.
B7 was tested, and the Kd was 200 nM.
With B8 the Kd was 34 nM.
Work on B9 yielded a Kd of 110 nM.
Work on B10 yielded a Kd of 33 nM.
B11 gave a Kd of 24 nM.
Work on B12 yielded a Kd of 1 nM.
Binder B13 has a Kd of 5800 nM.
B14 gave a Kd of 1.4 nM.
B15 showed a Kd of 180 nM.
With B16 the Kd was 21 nM.
